Substrate in data set [1]: Nc1ncnc2c1ncn2[C@@H]1O[C@H](COP(=O)(O)OP(=O)(O)OP(=O)(O)O)[C@@H](O)[C@H]1O
Put plainly: Binding affinity to Akt2.

Substrate in data set [2]: Nc1ncnc2c1ncn2[C@@H]1O[C@H](COP(=O)(O)OP(=O)(O)OP(=O)(O)O)[C@@H](O)[C@H]1O
Put plainly: Binding affinity to CHK1.

Substrate in data set [3]: Nc1ncnc2c1ncn2[C@@H]1O[C@H](COP(=O)(O)OP(=O)(O)OP(=O)(O)O)[C@@H](O)[C@H]1O
Put plainly: Binding affinity to aurora B.

B1: RAC-beta serine/threonine-protein kinase (Homo sapiens), P31751 (protein)
chain: MNEVSVIKEGWLHKRGEYIKTWRPRYFLLKSDGSFIGYKERPEAPDQTLPPLNNFSVAECQLMKTERPRPNTFVIRCLQWTTVIERTFHVDSPDEREEWMRAIQMVANSLKQRAPGEDPMDYKCGSPSDSSTTEEMEVAVSKARAKVTMNDFDYLKLLGKGTFGKVILVREKATGRYYAMKILRKEVIIAKDEVAHTVTESRVLQNTRHPFLTALKYAFQTHDRLCFVMEYANGGELFFHLSRERVFTEERARFYGAEIVSALEYLHSRDVVYRDIKLENLMLDKDGHIKITDFGLCKEGISDGATMKTFCGTPEYLAPEVLEDNDYGRAVDWWGLGVVMYEMMCGRLPFYNQDHERLFELILMEEIRFPRTLSPEAKSLLAGLLKKDPKQRLGGGPSDAKEVMEHRFFLSINWQDVVQKKLLPPFKPQVTSEVDTRYFDDEFTAQSITITPPDRYDSLGLLELDQRTHFPQFSYSASIRE
On to B1, for which the Km in data set [1] was found to be 254 µM.

B2: Serine/threonine-protein kinase Chk1 (Homo sapiens), O14757 (protein)
chain: MAVPFVEDWDLVQTLGEGAYGEVQLAVNRVTEEAVAVKIVDMKRAVDCPENIKKEICINKMLNHENVVKFYGHRREGNIQYLFLEYCSGGELFDRIEPDIGMPEPDAQRFFHQLMAGVVYLHGIGITHRDIKPENLLLDERDNLKISDFGLATVFRYNNRERLLNKMCGTLPYVAPELLKRREFHAEPVDVWSCGIVLTAMLAGELPWDQPSDSCQEYSDWKEKKTYLNPWKKIDSAPLALLHKILVENPSARITIPDIKKDRWYNKPLKKGAKRPRVTSGGVSESPSGFSKHIQSNLDFSPVNSASSEENVKYSSSQPEPRTGLSLWDTSPSYIDKLVQGISFSQPTCPDHMLLNSQLLGTPGSSQNPWQRLVKRMTRFFTKLDADKSYQCLKETCEKLGYQWKKSCMNQVTISTTDRRNNKLIFKVNLLEMDDKILVDFRLSKGDGLEFKRHFLKIKGKLIDIVSSQKIWLPAT
Consider B2, for which, in data set [2], the Km turned out to be 1.4 µM.

B3: Aurora kinase B (Homo sapiens), Q96GD4 (protein)
chain: MAQKENSYPWPYGRQTAPSGLSTLPQRVLRKEPVTPSALVLMSRSNVQPTAAPGQKVMENSSGTPDILTRHFTIDDFEIGRPLGKGKFGNVYLAREKKSHFIVALKVLFKSQIEKEGVEHQLRREIEIQAHLHHPNILRLYNYFYDRRRIYLILEYAPRGELYKELQKSCTFDEQRTATIMEELADALMYCHGKKVIHRDIKPENLLLGLKGELKIADFGWSVHAPSLRRKTMCGTLDYLPPEMIEGRMHNEKVDLWCIGVLCYELLVGNPPFESASHNETYRRIVKVDLKFPASVPMGAQDLISKLLRHNPSERLPLAQVSAHPWVRANSRRVLPPSALQSVA
With B3, in data set [3], the Km turned out to be 34 µM.

As a reminder, the Km is the concentration of substrate that gives half-maximal velocity.

Values taken from ChEMBL document CHEMBL1268867, “ATPases as drug targets: insights from heat shock proteins 70 and 90” (J Med Chem, 2010).
